# What was measured:
# KH1to4 IMP1 = KH1to4 IMP1 (UniProt Q9NZI8 195-553); experiment: fluorescence polarization; FP: 300 nM IMP1, 10 nM probe (inhibitor assays), binding buffer stock 50 mM Tris-Cl pH 7.4, 12.5 mM EDTA pH 8, 25% glycerol, 0.01% Triton-X, 37 C 30 min; EMSA:; settings: protein: recombinant; label: 3' 6-FL (fluorescein)
# KH3&4 IMP1 (KH34) = KH3&4 IMP1 (KH34) (UniProt Q9NZI8 405-553); experiment: fluorescence polarization; confluentin, no effect; FP: 300 nM IMP1, 10 nM probe (inhibitor assays), binding buffer stock 50 mM Tris-Cl pH 7.4, 12.5 mM EDTA pH 8, 25% glycerol, 0.01% Triton-X, 37 C 30 min; EMSA:; settings: protein: recombinant; label: 3' 6-FL (fluorescein)
# Chain of KH3&4 IMP1 (KH34) (Q9NZI8 405-553): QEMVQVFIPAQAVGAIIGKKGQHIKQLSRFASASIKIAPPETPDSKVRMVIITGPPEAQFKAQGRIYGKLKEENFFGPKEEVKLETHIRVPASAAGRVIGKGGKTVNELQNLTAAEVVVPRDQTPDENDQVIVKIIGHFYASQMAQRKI
# IMP1 wild type [1] = biological target: T1, IMP1 wild type (UniProt Q9NZI8 1-577); experiment: fluorescence polarization; grifolin up to 100 uM, no effect; FP: 300 nM IMP1, 10 nM probe (inhibitor assays), binding buffer stock 50 mM Tris-Cl pH 7.4, 12.5 mM EDTA pH 8, 25% glycerol, 0.01% Triton-X, 37 C 30 min; EMSA:; settings: protein: recombinant; label: 3' 6-FL (fluorescein)
# T1 sequence (Q9NZI8 whole entry): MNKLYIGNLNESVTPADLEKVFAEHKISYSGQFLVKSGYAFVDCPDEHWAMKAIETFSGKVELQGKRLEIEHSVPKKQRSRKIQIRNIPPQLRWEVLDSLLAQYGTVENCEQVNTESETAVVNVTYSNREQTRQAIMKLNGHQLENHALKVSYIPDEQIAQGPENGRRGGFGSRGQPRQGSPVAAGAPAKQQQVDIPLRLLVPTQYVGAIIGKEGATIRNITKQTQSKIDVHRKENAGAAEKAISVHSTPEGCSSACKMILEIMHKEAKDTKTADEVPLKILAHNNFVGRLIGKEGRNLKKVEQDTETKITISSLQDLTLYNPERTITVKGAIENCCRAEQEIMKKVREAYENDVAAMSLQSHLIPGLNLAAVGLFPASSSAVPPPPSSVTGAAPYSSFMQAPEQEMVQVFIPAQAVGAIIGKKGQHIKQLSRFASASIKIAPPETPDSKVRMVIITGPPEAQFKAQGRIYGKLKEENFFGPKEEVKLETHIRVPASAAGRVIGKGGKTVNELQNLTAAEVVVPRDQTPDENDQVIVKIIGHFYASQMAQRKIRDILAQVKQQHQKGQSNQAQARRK
# IMP1 wild type [2] = biological target: T1, IMP1 wild type; experiment: EMSA; IMP1 0-540 nM; smallest region with affinity; FP: 300 nM IMP1, 10 nM probe (inhibitor assays), binding buffer stock 50 mM Tris-Cl pH 7.4, 12.5 mM EDTA pH 8, 25% glycerol, 0.01% Triton-X, 37 C 30 min; EMSA:; settings: protein: recombinant; (radiolabeled)
# IMP1 wild type [3] = biological target: T1, IMP1 wild type; experiment: fluorescence polarization; FP: 300 nM IMP1, 10 nM probe (inhibitor assays), binding buffer stock 50 mM Tris-Cl pH 7.4, 12.5 mM EDTA pH 8, 25% glycerol, 0.01% Triton-X, 37 C 30 min; EMSA:; settings: protein: recombinant; label: 3' 6-FL (fluorescein)
# Chain of KH1to4 IMP1 (Q9NZI8 195-553): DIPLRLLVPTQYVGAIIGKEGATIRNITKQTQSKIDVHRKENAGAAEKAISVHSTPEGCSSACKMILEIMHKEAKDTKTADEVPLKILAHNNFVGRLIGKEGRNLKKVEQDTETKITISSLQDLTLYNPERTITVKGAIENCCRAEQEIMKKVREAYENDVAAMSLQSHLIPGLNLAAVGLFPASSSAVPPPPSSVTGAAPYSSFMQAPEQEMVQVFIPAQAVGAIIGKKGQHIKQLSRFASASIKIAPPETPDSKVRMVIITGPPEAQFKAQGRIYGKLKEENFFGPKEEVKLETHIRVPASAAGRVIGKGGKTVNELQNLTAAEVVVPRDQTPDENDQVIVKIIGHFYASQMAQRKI
binder,measurement,setting,value
AUGGAGAAACCUGUCUCUUGGAUAUUCUCGACACAGCAGGUCAU (ssRNA) [44-nt KRAS RNA (nts 142-185)],binding result,KH1to4 IMP1,binds
same,binding result,KH3&4 IMP1 (KH34),binds
same,binding result,IMP1 wild type [1],binds
GAAACCUGUCUCUUGGAUAUUCUCGACACAGCAGGUCAU (ssRNA) [39-nt KRAS RNA nts 147-185],binding result,IMP1 wild type [2],binds
AAAUUAGGGCCCAAUUAAUAAUCAGCAAGAAUUUGAUCG (ssRNA) [39-nt CD44 RNA (nts 2862-2900)],binding result,IMP1 wild type [3],binds

# — article PMC7199964, “Grifolin, neogrifolin and confluentin from the terricolous polypore Albatrellus flettii suppress KRAS expression in human colon cancer cells”
